Reference: article PMC3068626, “Cholesterol utilization in mycobacteria is controlled by two TetR-type transcriptional regulators: kstR and kstR2”

Key:
KstR2Mtb [1] = molecular target: T1, KstR2Mtb (Mycobacterium tuberculosis, UniProt P9WMB9 1-200); assay: EMSA; 20 mM Tris/HCl pH 8.0, 10 mM MgCl2, 75 mM NaCl, 20 min at 37 C; […]; settings: protein: recombinant; tags: none in EMSA (His6 tag removed with TEV protease); chain copies: 2; label: 3' DIG-11-ddUTP (end-labelled)
KstR2Mtb [2] = molecular target: T1, KstR2Mtb; assay: EMSA; 1 uM DNA, 6 uM protein, 10 mM MgCl2; 20 mM Tris/HCl pH 8.0, 10 mM MgCl2, 75 mM NaCl, 20 min at 37 C; […]; settings: protein: recombinant; tags: none in EMSA (His6 tag removed with TEV protease); chain copies: 2; label: none (ethidium bromide stain); blunt

T1 sequence (P9WMB9 whole entry): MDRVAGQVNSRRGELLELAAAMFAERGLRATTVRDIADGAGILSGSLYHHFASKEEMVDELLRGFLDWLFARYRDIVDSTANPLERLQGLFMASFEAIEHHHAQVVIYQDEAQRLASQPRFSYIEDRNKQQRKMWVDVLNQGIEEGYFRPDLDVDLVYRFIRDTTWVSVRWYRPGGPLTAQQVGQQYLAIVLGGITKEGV

B1: Rv3557c/Rv3558 probe, DIG-labelled (dsDNA)
DNA 1: GCTGGCCGAGCAAGCGCTTGGTTGATAGTC
DNA 2: GACTATCAACCAAGCGCTTGCTCGGCCAGC
B1: binds (KstR2Mtb [1]).

B2: Rv3549c/Rv3550 probe (dsDNA)
DNA 1: GCGTACCAAGCAAGTGCTTGCTTAGGTAGC
DNA 2: GCTACCTAAGCAAGCACTTGCTTGGTACGC
B2: binds (KstR2Mtb [2]).

B3: Rv3557c/Rv3558 probe (dsDNA)
DNA 1: GCTGGCCGAGCAAGCGCTTGGTTGATAGTC
DNA 2: GACTATCAACCAAGCGCTTGCTCGGCCAGC
B3: binds (KstR2Mtb [2]).

B4: Rv3560c/Rv3561 probe (dsDNA)
DNA 1: GCTAACCTACCAAGCACTTGCTTTGTTAGG
DNA 2: CCTAACAAAGCAAGTGCTTGGTAGGTTAGC
B4: binds (KstR2Mtb [2]).
